Reference: patent US20120321699A1

Columns and labels:
HCV E2 (HCV) = assay: Luminex assay, antibody 50 µg/ml
[1] = biological target: Influenza HA (Wisconsin) (influenza virus); assay: Luminex assay, antibody 50 µg/ml
SSA autoantigen [2] = assay: Athena assay, mAb 12.5 ug/ml; positive >50
centromere B autoantigen [3] = assay: Athena assay, mAb 12.5 ug/ml; positive >50
Histone autoantigen [4] = assay: Athena assay, mAb 12.5 ug/ml; positive >50
RNP autoantigen [5] = assay: Athena assay, mAb 12.5 ug/ml; positive >50
Sm autoantigen [6] = assay: Athena assay, mAb 12.5 ug/ml; positive >50
Jo 1 autoantigen [7] = assay: Athena assay, mAb 12.5 ug/ml; positive >50
Scl 70 autoantigen [8] = assay: Athena assay, mAb 12.5 ug/ml; positive >50
SSB autoantigen [9] = assay: Athena assay, mAb 12.5 ug/ml; positive >50
A244 gD- gp120 (HIV-1) = assay: SPR
[10] = biological target: A244gD+ gp120 (herpes simplex virus; HIV-1); assay: SPR
A244gD+ gp120 (herpes simplex virus; HIV-1), sequence (Q69091 26-52): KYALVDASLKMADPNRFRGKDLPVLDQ

[11] = biological target: HV00044 (6240 TZ5 140C) (HIV-1); assay: SPR
SSA autoantigen [12] = assay: Athena assay, mAb 25 ug/ml; positive >50
centromere B autoantigen [13] = assay: Athena assay, mAb 25 ug/ml; positive >50
Histone autoantigen [14] = assay: Athena assay, mAb 25 ug/ml; positive >50
RNP autoantigen [15] = assay: Athena assay, mAb 25 ug/ml; positive >50
Sm autoantigen [16] = assay: Athena assay, mAb 25 ug/ml; positive >50
Jo 1 autoantigen [17] = assay: Athena assay, mAb 25 ug/ml; positive >50
Scl 70 autoantigen [18] = assay: Athena assay, mAb 25 ug/ml; positive >50
SSB autoantigen [19] = assay: Athena assay, mAb 25 ug/ml; positive >50
SSA autoantigen [20] = assay: Athena assay, mAb 6.25 ug/ml; positive >50
centromere B autoantigen [21] = assay: Athena assay, mAb 6.25 ug/ml; positive >50
Histone autoantigen [22] = assay: Athena assay, mAb 6.25 ug/ml; positive >50
RNP autoantigen [23] = assay: Athena assay, mAb 6.25 ug/ml; positive >50
Sm autoantigen [24] = assay: Athena assay, mAb 6.25 ug/ml; positive >50
Jo 1 autoantigen [25] = assay: Athena assay, mAb 6.25 ug/ml; positive >50
Scl 70 autoantigen [26] = assay: Athena assay, mAb 6.25 ug/ml; positive >50
SSB autoantigen [27] = assay: Athena assay, mAb 6.25 ug/ml; positive >50
SSA autoantigen [28] = assay: Athena assay, mAb 50 ug/ml; positive >50
centromere B autoantigen [29] = assay: Athena assay, mAb 50 ug/ml; positive >50
Histone autoantigen [30] = assay: Athena assay, mAb 50 ug/ml; positive >50
RNP autoantigen [31] = assay: Athena assay, mAb 50 ug/ml; positive >50
Sm autoantigen [32] = assay: Athena assay, mAb 50 ug/ml; positive >50
Jo 1 autoantigen [33] = assay: Athena assay, mAb 50 ug/ml; positive >50
Scl 70 autoantigen [34] = assay: Athena assay, mAb 50 ug/ml; positive >50
SSB autoantigen [35] = assay: Athena assay, mAb 50 ug/ml; positive >50

| Substance | background substracted RFUs (HCV E2 (HCV)) [RFU] | background substracted RFUs [1] [RFU] | Autoreactivity (Athena) (SSA autoantigen [2]) | Autoreactivity (Athena) (centromere B autoantigen [3]) | Autoreactivity (Athena) (Histone autoantigen [4]) | Autoreactivity (Athena) (RNP autoantigen [5]) | Autoreactivity (Athena) (Sm autoantigen [6]) | Autoreactivity (Athena) (Jo 1 autoantigen [7]) | Autoreactivity (Athena) (Scl 70 autoantigen [8]) | Autoreactivity (Athena) (SSB autoantigen [9]) | Autoreactivity (Athena) (SSA autoantigen [12]) | Autoreactivity (Athena) (centromere B autoantigen [13]) | Autoreactivity (Athena) (Histone autoantigen [14]) | Autoreactivity (Athena) (RNP autoantigen [15]) | Autoreactivity (Athena) (Sm autoantigen [16]) | Autoreactivity (Athena) (Jo 1 autoantigen [17]) | Autoreactivity (Athena) (Scl 70 autoantigen [18]) | Autoreactivity (Athena) (SSB autoantigen [19]) | Autoreactivity (Athena) (SSA autoantigen [20]) | Autoreactivity (Athena) (centromere B autoantigen [21]) | further results |
| --- | --- | --- | --- | --- | --- | --- | --- | --- | --- | --- | --- | --- | --- | --- | --- | --- | --- | --- | --- | --- | --- |
| Synagis (anti-RSV control mAb) (antibody) | 0.5 | 1 | – | – | – | – | – | – | – | – | – | – | – | – | – | – | – | – | – | – | – |
| CH05 (antibody) | 1.3 | 5.5 | 8 | 6.5 | 11 | 3.5 | 3.5 | 2.5 | 1.5 | 5 | 12.5 | 9 | 14 | 4.5 | 3 | 3.5 | 1.5 | 5.5 | 7 | 6 | Kd (A244 gD- gp120 (HIV-1)): 340 nM; Kd [10]: 26.1 nM; Kd [11]: 1450 nM; Autoreactivity (Athena) (Histone autoantigen [22]): 10; Autoreactivity (Athena) (RNP autoantigen [23]): 3; Autoreactivity (Athena) (Sm autoantigen [24]): 2.5; Autoreactivity (Athena) (Jo 1 autoantigen [25]): 2.5; Autoreactivity (Athena) (Scl 70 autoantigen [26]): 1.5; Autoreactivity (Athena) (SSB autoantigen [27]): 6; Autoreactivity (Athena) (SSA autoantigen [28]): 27; Autoreactivity (Athena) (centromere B autoantigen [29]): 14.5; Autoreactivity (Athena) (Histone autoantigen [30]): 21.5; Autoreactivity (Athena) (RNP autoantigen [31]): 9; Autoreactivity (Athena) (Sm autoantigen [32]): 2.5; Autoreactivity (Athena) (Jo 1 autoantigen [33]): 9; Autoreactivity (Athena) (Scl 70 autoantigen [34]): 2; Autoreactivity (Athena) (SSB autoantigen [35]): 13 |
| 4E10 (antibody) | 89.2 | 0 | 169 | 13 | 160 | 9 | 5 | 87 | 3 | 124 | 247 | 19 | 274 | 15 | 7 | 138 | 4 | 206 | 115 | 9 | Autoreactivity (Athena) (Histone autoantigen [22]): 113; Autoreactivity (Athena) (RNP autoantigen [23]): 6; Autoreactivity (Athena) (Sm autoantigen [24]): 4; Autoreactivity (Athena) (Jo 1 autoantigen [25]): 65; Autoreactivity (Athena) (Scl 70 autoantigen [26]): 2; Autoreactivity (Athena) (SSB autoantigen [27]): 93; Autoreactivity (Athena) (SSA autoantigen [28]): 306; Autoreactivity (Athena) (centromere B autoantigen [29]): 31; Autoreactivity (Athena) (Histone autoantigen [30]): 333; Autoreactivity (Athena) (RNP autoantigen [31]): 20; Autoreactivity (Athena) (Sm autoantigen [32]): 9; Autoreactivity (Athena) (Jo 1 autoantigen [33]): 156; Autoreactivity (Athena) (Scl 70 autoantigen [34]): 3; Autoreactivity (Athena) (SSB autoantigen [35]): 254 |
| CH02 (antibody) | 333 | 0.3 | 5 | 7 | 8.5 | 6 | 2.5 | 1 | 1.5 | 3.5 | 6 | 9.5 | 11.5 | 9 | 3 | 1.5 | 2 | 4.5 | 5 | 6 | Kd [10]: 450 nM; Autoreactivity (Athena) (Histone autoantigen [22]): 7; Autoreactivity (Athena) (RNP autoantigen [23]): 5; Autoreactivity (Athena) (Sm autoantigen [24]): 2.5; Autoreactivity (Athena) (Jo 1 autoantigen [25]): 1.5; Autoreactivity (Athena) (Scl 70 autoantigen [26]): 2; Autoreactivity (Athena) (SSB autoantigen [27]): 5; Autoreactivity (Athena) (SSA autoantigen [28]): 5.5; Autoreactivity (Athena) (centromere B autoantigen [29]): 12.5; Autoreactivity (Athena) (Histone autoantigen [30]): 15.5; Autoreactivity (Athena) (RNP autoantigen [31]): 12.5; Autoreactivity (Athena) (Sm autoantigen [32]): 3.5; Autoreactivity (Athena) (Jo 1 autoantigen [33]): 2; Autoreactivity (Athena) (Scl 70 autoantigen [34]): 2.5; Autoreactivity (Athena) (SSB autoantigen [35]): 4.5 |
